Assay results taken from paper PMC10504324, “A microprotein N1DARP encoded by LINC00261 promotes Notch1 intracellular domain (N1ICD) degradation via disrupting USP10-N1ICD interaction to inhibit chemoresistance in Notch1-hyperactivated pancreatic cancer” (Cell Discovery, 2023).
“And” between values parts separate entries of the source, which are not always exact repeats. Equal values may be shown once. One block for each molecule: values may come before it. Bridge positions count the residues as written; N and C are the ends. Square brackets hold non-standard residues; d marks the D form. Ends that are not written are not given here. S5 = C=CCCC[C@](C)(N)C(=O)O

Legend:
[1] = test system: Capan1; test: IC50 assay, chemosensitivity to GEM; assay type: cell-based; conditions: Homo sapiens, CAPAN-1; Capan1, Vector; Fig. 5j
[2] = test system: metastatic pancreatic cancers; conditions: cited from earlier work; for remission in clinical studies: γ-secretase inhibitors, metastatic pancreatic cancers
Source text: The Notch pathway is active in a broad spectrum of human cancers, including breast, colorectal, lung, prostate, glioblastoma, and pancreatic cancer. Notch signaling is positively associated with pancreatic tumor initiation, progression, and drug resistance in both cell lines and genetic mutant mouse models[7],[8]. In preclinical models, pharmacological inhibition of Notch signaling by small molecules designed to affect HES1 transcriptional function (JI051 and JI130)[9] and natural agents targeting the Notch pathway, such as curcumin, genistein, quercetin, and sulforaphane, slowed tumor prol ...

[3] = target: AH2, alpha-helical peptide 2 of N1DARP (human); test: SPR; BIAcore T200 (GE Healthcare); dissociation constant calculated with BIA-evaluation software; which partner was immobilised is not stated
[4] = target: ANK domain of N1ICD (Homo sapiens, UniProt P46531); test: SPR analysis, affinity for ANK domain; assay type: binding; conditions: mAH2 compared with AH2, Fig. S8E
Procedure: The binding kinetics between N1DARP or SAH-mAH2-5 and the indicated peptides were analyzed using a SPR assay with a BIAcore T200 instrument (GE Healthcare, Pittsburgh, PA, USA). The dissociation constant was calculated using BIA-evaluation software.
309 was determined using reversed phase HPLC with electrospray ionization mass spectrometric detection.
311 Supplementary Note S1. Generation and modification of N1DARP-derived stapled peptide SAH-
313 To evaluate the therapeutic potential of disrupting the N1ICD-USP10 interaction with N1DARP and
314 define a more druggable target, we simulated the tertiary structure of N1DARP using I-TASSAR, a
315 hierarchical server for protein structure prediction4, and identified two α-helical peptides (AH1 and
316 AH2) (Fig. S8A, left panel).
318 we constructed and purified six subdomains with α-helix secondary structure of ANK, designated from
320 S8B-S8D). To optimize the physicochemical properties of AH2, we first checked the amino acid
322 cancer cells to AH2; therefore, we tried amino acid substitution of Glu32 by Gln32. SPR analysis
324 mAH2 (Fig. S8E). Next, to identify the indispensable amino acids mediating mAH2 and ANK
325 interactions, we substituted each amino acid of mAH2 with Ala, followed by SPR analysis. The results
328 i + 4, or i + 7) and denoted them as stapled α-helices (SAHs). […]

[5] = target: N1ICD (wild type; source not stated) (UniProt P46531); test: co-IP followed by western blotting (band intensity); conditions: HEK293T, IgG control 0.00
[6] = target: T1, ANK domain of Notch1 intracellular domain (N1ICD-ANK) (UniProt P46531 1927-2122); test: SPR; BIAcore T200 (GE Healthcare); dissociation constant calculated with BIA-evaluation software; which partner was immobilised is not stated; conditions: both partners purified
T1 construct: Notch1, ankyrin repeat (ANK) domain of the intracellular domain; the numbers fit human NOTCH1 (2555 aa); also called ANK repeat

[7] = target: T2, ANK domain of Notch4 intracellular domain (N4ICD-ANK) (UniProt Q99466 1633-1798); test: as above; conditions: both partners purified
T2 construct: Notch4, ANK domain of the intracellular domain; position 1633-1798, length 166 aa printed
T2 sequence (looked up): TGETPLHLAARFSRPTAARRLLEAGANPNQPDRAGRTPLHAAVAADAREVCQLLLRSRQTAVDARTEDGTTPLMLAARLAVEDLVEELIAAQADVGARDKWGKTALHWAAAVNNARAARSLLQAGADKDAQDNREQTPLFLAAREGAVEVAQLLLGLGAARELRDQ

[8] = target: T3, ANK domain of Notch2 intracellular domain (N2ICD-ANK) (UniProt Q04721 1827-2038); test: as above; conditions: both partners purified
T3 construct: Notch2, ANK domain of the intracellular domain; position 1827-2038, length 212 aa printed
T3 sequence (looked up): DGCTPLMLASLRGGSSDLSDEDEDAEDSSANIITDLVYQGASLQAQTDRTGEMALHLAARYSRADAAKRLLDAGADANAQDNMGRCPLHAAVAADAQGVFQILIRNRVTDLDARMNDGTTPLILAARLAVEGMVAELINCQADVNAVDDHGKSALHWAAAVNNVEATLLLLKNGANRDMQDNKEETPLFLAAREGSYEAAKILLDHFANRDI

[9] = target: T4, ANK domain of Notch3 intracellular domain (N3ICD-ANK) (UniProt Q9UM47 1838-2000); test: as above; conditions: both partners purified
T4 construct: Notch3, ANK domain of the intracellular domain; position 1838-2000, length 163 aa printed
T4 sequence (looked up): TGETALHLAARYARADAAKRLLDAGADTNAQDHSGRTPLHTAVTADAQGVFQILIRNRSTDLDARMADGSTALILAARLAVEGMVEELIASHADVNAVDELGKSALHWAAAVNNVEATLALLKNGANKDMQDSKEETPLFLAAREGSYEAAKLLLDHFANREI

[10] = IP: Anti-Flag (N1DARP-Flag), blot: Myc
[11] = IP: Anti-Myc (N1ICD-Myc), blot: Flag

Molecule: Nc1ccn([C@@H]2O[C@H](CO)[C@@H](O)C2(F)F)c(=O)n1 [GEM, gemcitabine]
IC50 [1]: 0.044 µM

Molecule: O=C(O)CC[C@H]1CC[C@@](c2cc(F)ccc2F)(S(=O)(=O)c2ccc(Cl)cc2)CC1 [MK-0752]
remission in clinical studies [2]: no significant remission was observed

Molecule: CCC[C@H](N[C@H]1CCc2cc(F)cc(F)c2C1)C(=O)Nc1cn(C(C)(C)CNCC(C)(C)C)cn1 [PF-03084014]
remission in clinical studies [2]: no significant remission was observed

Molecule: CC(C)(C(=O)NCC(F)(F)C(F)(F)F)C(=O)N[C@@H]1C(=O)Nc2ccccc2-c2ccccc21 [RO4929097]
remission in clinical studies [2]: no significant remission was observed

Molecule: ANK1, subdomain of the ANK domain of N1ICD (from UniProt P46531 19-2555) (domain or fragment)
Kd [3]: 0.0434 µM

Molecule: ANK2, subdomain of the ANK domain of N1ICD (from UniProt P46531 19-2555) (domain or fragment)
Kd [3]: 23.3 µM

Molecule: ANK3, subdomain of the ANK domain of N1ICD (from UniProt P46531 19-2555) (domain or fragment)
Kd [3]: 85.8 µM

Molecule: ANK4, subdomain of the ANK domain of N1ICD (from UniProt P46531 19-2555) (domain or fragment)
Kd [3]: 66.1 µM

Molecule: ANK5, subdomain of the ANK domain of N1ICD (from UniProt P46531 19-2555) (domain or fragment)
Kd [3]: 42.8 µM

Molecule: ANK6, subdomain of the ANK domain of N1ICD (from UniProt P46531 19-2555) (domain or fragment)
Kd [3]: 64.2 µM

Molecule: tarextumab: fully human IgG2 antibody that inhibits Notch2/3 receptors
remission and tolerance, phase II study ([2]; metastatic pancreatic cancer, in combination with gemcitabine (GEM) and paclitaxel): remarkable remission and tolerance

B2: mAH2, AH2 of N1DARP with Glu32 substituted by Gln32 (peptide)
peptide: YAKRIFYQLLSKQL
notes: N1DARP (41 aa, encoded by LINC00261) residues 20-33 with E32Q; also called modified AH2; substituted AH2; source: synthetic peptide (Chinese Peptide, Inc., Hangzhou; > 98% purity)
Kd [6]: 0.0604 µM and 0.0452 µM

B9: AH2, alpha-helical peptide 2 of N1DARP (peptide)
peptide: YAKRIFYQLLSKEL
notes: N1DARP, 41-aa microprotein encoded by LINC00261 (ORF12); source: synthetic peptide (Chinese Peptide, Inc., Hangzhou; > 98% purity); 'purified AH2 peptide'
Kd [6]: 0.0604 µM

B16: AH1, alpha-helical peptide 1 of N1DARP (peptide)
peptide: LLEKKRQY
notes: N1DARP, 41-aa microprotein encoded by LINC00261 (ORF12); source: synthetic peptide (Chinese Peptide, Inc., Hangzhou; > 98% purity)
Kd [6]: 0.213 µM

B17: SAH-mAH2-2, stapled alpha-helix of mAH2 (peptide)
chain: Y[S5]KRI[S5]YQLLSKQL
modifications: staple 2-6
Kd [6]: 0.0977 µM

B19: SAH-mAH2-1, stapled alpha-helix of mAH2 (peptide)
chain: [S5]AKR[S5]FYQLLSKQL
modifications: staple 1-5
Kd [6]: 0.134 µM

B20: SAH-mAH2-3, stapled alpha-helix of mAH2 (peptide)
chain: YAKRI[S5]YQL[S5]SKQL
modifications: staple 6-10
Kd [6]: 0.0105 µM

Results, then the molecule that gave them:

affinity for ANK after substitution of Glu32 by Gln32 [4]: comparable affinity
Molecule: mAH2: AH2 with amino acid substitution of Glu32 by Gln32 (YAKRIFYQLLSKQL)

response [5, 10]: 0.87 | response [5, 11]: 1.07
Molecule: wild-type N1DARP (overexpressed) D41A

response [5, 10]: 0.91 | response [5, 11]: 0.93
Molecule: wild-type N1DARP (overexpressed) G12A

response [5, 10]: 1.01 | response [5, 11]: 0.87
Molecule: wild-type N1DARP (overexpressed) L28A

response [5, 10]: 0.26 | response [5, 11]: 0.35
Molecule: wild-type N1DARP (overexpressed) Y20A

response [5, 10]: 0 | response [5, 11]: 0
Molecule: wild-type N1DARP (overexpressed) Y20A; Y34A

response [5, 10]: 0.43 | response [5, 11]: 0.31
Molecule: wild-type N1DARP (overexpressed) Y34A

Kd [6]: 0.0258 µM
B1: SAH-mAH2-4, stapled alpha-helix of mAH2 (peptide)
chain: [S5]AKRIFY[S5]LLSKQL
modifications: staple 1-8

Kd [6]: 0.0839 µM
B3: mAH2-11, alanine mutant of mAH2 (peptide)
peptide: YAKRIFYQLLAKQL
notes: N1DARP residues 20-33 with E32Q and position 11 of the peptide (S30) to Ala; source: synthetic peptide (Chinese Peptide, Inc., Hangzhou; > 98% purity)

Kd [6]: 0.099 µM
B4: mAH2-13, alanine mutant of mAH2 (peptide)
peptide: YAKRIFYQLLSKAL
notes: N1DARP residues 20-33 with position 13 of the peptide (residue 32: Glu in N1DARP, Gln in mAH2) to Ala; source: synthetic peptide (Chinese Peptide, Inc., Hangzhou; > 98% purity)

Kd [6]: 0.0874 µM
B5: mAH2-8, alanine mutant of mAH2 (peptide)
peptide: YAKRIFYALLSKQL
notes: N1DARP residues 20-33 with E32Q and position 8 of the peptide (Q27) to Ala; source: synthetic peptide (Chinese Peptide, Inc., Hangzhou; > 98% purity)

Kd [6]: 0.0745 µM
B6: mAH2-4, alanine mutant of mAH2 (peptide)
peptide: YAKAIFYQLLSKQL
notes: N1DARP residues 20-33 with E32Q and position 4 of the peptide (R23) to Ala; source: synthetic peptide (Chinese Peptide, Inc., Hangzhou; > 98% purity)

Kd [6]: 5.96 µM
B7: mAH2-14, alanine mutant of mAH2 (Leu33 to Ala) (peptide)
peptide: YAKRIFYQLLSKQA
notes: N1DARP residues 20-33 with E32Q and position 14 of the peptide (Leu33) to Ala; source: synthetic peptide (Chinese Peptide, Inc., Hangzhou; > 98% purity)

Kd [6]: 0.288 µM
B8: mAH2-9, alanine mutant of mAH2 (Leu28 to Ala) (peptide)
peptide: YAKRIFYQALSKQL
notes: N1DARP residues 20-33 with E32Q and position 9 of the peptide (Leu28) to Ala; source: synthetic peptide (Chinese Peptide, Inc., Hangzhou; > 98% purity)

Kd [6]: 0.0961 µM
B10: mAH2-1, alanine mutant of mAH2 (peptide)
peptide: AAKRIFYQLLSKQL
notes: N1DARP residues 20-33 with E32Q and position 1 of the peptide (Y20) to Ala; source: synthetic peptide (Chinese Peptide, Inc., Hangzhou; > 98% purity)

Kd [6]: 0.0782 µM
B11: mAH2-12, alanine mutant of mAH2 (peptide)
peptide: YAKRIFYQLLSAQL
notes: N1DARP residues 20-33 with E32Q and position 12 of the peptide (K31) to Ala; source: synthetic peptide (Chinese Peptide, Inc., Hangzhou; > 98% purity)

Kd [6]: 0.0575 µM
B12: mAH2-5, alanine mutant of mAH2 (peptide)
peptide: YAKRAFYQLLSKQL
notes: N1DARP residues 20-33 with E32Q and position 5 of the peptide (I24) to Ala; source: synthetic peptide (Chinese Peptide, Inc., Hangzhou; > 98% purity)

Kd [6]: 0.0511 µM
B13: mAH2-3, alanine mutant of mAH2 (peptide)
peptide: YAARIFYQLLSKQL
notes: N1DARP residues 20-33 with E32Q and position 3 of the peptide (K22) to Ala; source: synthetic peptide (Chinese Peptide, Inc., Hangzhou; > 98% purity)

Kd [6]: 0.0555 µM
B14: mAH2-10, alanine mutant of mAH2 (peptide)
peptide: YAKRIFYQLASKQL
notes: N1DARP residues 20-33 with E32Q and position 10 of the peptide (L29) to Ala; source: synthetic peptide (Chinese Peptide, Inc., Hangzhou; > 98% purity)

Kd [6]: 0.0636 µM
B15: mAH2-6, alanine mutant of mAH2 (peptide)
peptide: YAKRIAYQLLSKQL
notes: N1DARP residues 20-33 with E32Q and position 6 of the peptide (F25) to Ala; source: synthetic peptide (Chinese Peptide, Inc., Hangzhou; > 98% purity)

Kd [7]: 0.0352 µM | Kd [8]: 0.539 µM | Kd [9]: 0.069 µM | Kd [6]: 0.000898 µM
B18: SAH-mAH2-5, N1DARP-derived stapled peptide (peptide)
chain: YAKRI[S5]YQLLSK[S5]L
modifications: staple 6-13
